From US20230265167A1, “COMPOSITIONS HAVING NEUROREGENERATIVE APPLICATIONS” (GRIFOLS WORLDWIDE OPERATIONS LIMITED, priority 2020, published 2023)

Tested on: SH-SY5Y cells
Experiment: Neurite outgrowth (differentiation) in SH-SY5Y cells, Tubulin Tracker imaging
Type: cell-based, human
Experimental: Transferrin is utilized in cell culture and in-vivo to deliver iron as a nutrient to cells. This is typically accomplished through the actions of holo-transferrin (HoloTf) binding to, and endocytosis by, its cognate receptor CD71, the transferrin receptor 1 (TfR1). Transferrin is typically believed to provide cells with iron as a means to promote and sustain metabolic activity. […] Induction of neuronal differentiation was assessed by morphological parameters of neurite formation (a key element typically used as a marker of neuronal differentiation, neuronal health, and function) according to the procedures of Agholme, 2010. J. of Alzheimer's Disease. Vol. 20:1p 069-108; and Dyberg et al., 2017. PNAS Vol 114 (32), E6603-E6612.
Undifferentiated SH-SY5Y cells were seeded into 96 well clear bottom plates in media containing 0.1% FBS. A serum-free base media was utilized as recommended by the supplier for SH-SY5Y cells (Sigma, Cat #94030304-1VL). Twenty-four hours after seeding cells, a 3× stock solution of ApoTf, final concentrations indicated on the x-axis, in serum free base media was added to the cells. ApoTf was obtained and purified from pooled human plasma and dosed at a final concentration of 0.2 mg/mL.
Cells were allowed to differentiate for 6 days. Neurite growth was assessed by imaging and image analysis. […]
After obtaining images, the MetaExpress Neurite Outgrowth analysis module (Molecular Devices) was used to identify cells, cell bodies, and quantify neurites. […] The Outgrowth Fold Change was determined by setting the untreated control cells to a value of 1 with all other treatments shown relative to untreated control.
Undifferentiated SH-SY5Y cells were seeded and treated as described in Example 1. Neurite growth was assessed by imaging and image analysis. […] After obtaining images, the MetaExpress Neurite Outgrowth analysis module (Molecular Devices) was used to identify cell bodies and quantify neurites. […] The Outgrowth Fold Change was determined by setting the untreated control to a value of 1 with all other treatments shown relative to untreated control. […]

B1: N-mut rec ApoTf: Y95F/Y188F Transferrin N-lobe mutant protein, SEQ ID 4, reduced iron-binding capacity (protein)
chain: VPDKTVRWCAVSEHEATKCQSFRDHMKSVIPSDGPSVACVKKASYLDCIRAIAANEADAVTLDAGLVYDAYLAPNNLKPVVAEFYGSKEDPQTFFYAVAVVKKDSGFQMNQLRGKKSCHTGLGRSAGWNIPIGLLYCDLPEPRKPLEKAVANFFSGSCAPCADGTDFPQLCQLCPGCGCSTLNQYFGFSGAFKCLKDGAGDVAFVKHSTIFENLANKADRDQYELLCLDNTRKPVDEYKDCHLAQVPSHTVVARSMGGKEDLIWELLNQAQEHFGKDKSKEFQLFSSPHGKDLLFKDSAHGFLKVPPRMDAKMYLGYEYVTAIRNLREGTCPEAPTDECKPVKWCALSHHERLKCDEWSVNSVGKIECVSAETTEDCIAKIMNGEADAMSLDGGFVYIAGKCGLVPVLAENYNKSDNCEDTPEAGYFAVAVVKKSASDLTWDNLKGKKSCHTAVGRTAGWNIPMGLLYNKINHCRFDEFFSEGCAPGSKKDSSLCKLCMGSGLNLCEPNNKEGYYGYTGAFRCLVEKGDVAFVKHQTVPQNTGGKNPDPWAKNLNEKDYELLCLDGTRKPVEEYANCHLARAPNHAVVTRKDKEACVHKILRQQQHLFGSNVTDCSGNFCLFRSETKDLLFRDDTVCLAKLHDRNTYEKYLGEEYVKAVGNLRKCSTSSLLEACTFRRP
modifications: Y95F/Y188F mutant
For B1, the “neurogenesis (neurite outgrowth) of SH-SY5Y” value (FIG. 3B, proteins at 0.2 mg/mL) was “almost equal to that of ApoTf and rec ApoTf at inducing differentiation”.

B2: apo-lactoferrin: structural and functional homologue of apo-transferrin, obtained from Athens Research & Technology (protein, UniProt P02788 20-710, looked up)
Lactotransferrin: GRRRSVQWCAVSQPEATKCFQWQRNMRKVRGPPVSCIKRDSPIQCIQAIAENRADAVTLDGGFIYEAGLAPYKLRPVAAEVYGTERQPRTHYYAVAVVKKGGSFQLNELQGLKSCHTGLRRTAGWNVPIGTLRPFLNWTGPPEPIEAAVARFFSASCVPGADKGQFPNLCRLCAGTGENKCAFSSQEPYFSYSGAFKCLRDGAGDVAFIRESTVFEDLSDEAERDEYELLCPDNTRKPVDKFKDCHLARVPSHAVVARSVNGKEDAIWNLLRQAQEKFGKDKSPKFQLFGSPSGQKDLLFKDSAIGFSRVPPRIDSGLYLGSGYFTAIQNLRKSEEEVAARRARVVWCAVGEQELRKCNQWSGLSEGSVTCSSASTTEDCIALVLKGEADAMSLDGGYVYTAGKCGLVPVLAENYKSQQSSDPDPNCVDRPVEGYLAVAVVRRSDTSLTWNSVKGKKSCHTAVDRTAGWNIPMGLLFNQTGSCKFDEYFSQSCAPGSDPRSNLCALCIGDEQGENKCVPNSNERYYGYTGAFRCLAENAGDVAFVKDVTVLQNTDGNNNEAWAKDLKLADFALLCLDGKRKPVTEARSCHLAMAPNHAVVSRMDKVERLKQVLLHQQAKFGRNGSDCPDKFCLFQSETKNLLFNDNTECLARLHGKTTYEKYLGPQYVAGITNLKKCSTSPLLEACEFLRK
modifications: iron-free apo form
notes: structural and functional homologue of apo-transferrin, obtained from Athens Research & Technology
In the case of B2, the “neurogenesis / differentiation of SH-SY5Y” value (FIG. 4, proteins at 0.2 mg/mL) is reported as “induced differentiation”.

B3: BDNF: brain-derived neurotrophic factor; NGF superfamily; SEQ ID NO: 6 (protein, listed as Homo sapiens)
chain: MFHQVRRVMTILFLTMVISYFGCMKAAPMKEANIRGQGGLAYPGVRTHGTLESVNGPKAGSRGLTSLADTFEHVIEELLDEDQKVRPNEENNKDADLYTSRVMLSSQVPLEPPLLFLLEEYKNYLDAANMSMRVRRHSDPARRGELSVCDSISEWVTAADKKTAVDMSGGTVTVLEKVPVSKGQLKQYFYETKCNPMGYTKEGCRGIDKRHWNSQCRTTQSYVRALTMDSKKRIGWRFIRIDTSCVCTLTIKRGR
With B3 the “differentiation of SH-SY5Y, factor alone” value (FIGS. 7A-7D, BDNF 25 ng/mL, GDNF 1000 ng/mL, CNTF 250 ng/mL, PACAP 200 nM) was “differentiation was not induced”.
